T1: LAG-3-hFc protein (human LAG-3 extracellular region with hFc tag) (human, UniProt P18627 23-450)
T1 construct: also called hLAG-3-hFc; LAG-3 protein; not shown: human IgG Fc fragment (hFc) of the pCpC vector
T1 sequence: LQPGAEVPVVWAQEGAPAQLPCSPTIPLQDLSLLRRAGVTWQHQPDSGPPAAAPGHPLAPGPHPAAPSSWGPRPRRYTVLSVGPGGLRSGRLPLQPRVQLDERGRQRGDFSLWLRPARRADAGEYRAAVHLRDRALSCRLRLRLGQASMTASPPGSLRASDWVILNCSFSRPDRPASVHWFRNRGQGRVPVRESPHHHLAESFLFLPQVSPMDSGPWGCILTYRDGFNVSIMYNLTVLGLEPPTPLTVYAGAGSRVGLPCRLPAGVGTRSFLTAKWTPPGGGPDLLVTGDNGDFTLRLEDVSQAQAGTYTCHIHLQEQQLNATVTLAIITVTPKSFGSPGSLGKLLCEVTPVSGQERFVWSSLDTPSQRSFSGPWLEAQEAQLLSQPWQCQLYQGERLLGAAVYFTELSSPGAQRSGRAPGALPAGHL

T2: human LAG-3 on cells (HEK293-hLAG-3 stable cell line) (human, UniProt P18627 23-525)
T2 sequence: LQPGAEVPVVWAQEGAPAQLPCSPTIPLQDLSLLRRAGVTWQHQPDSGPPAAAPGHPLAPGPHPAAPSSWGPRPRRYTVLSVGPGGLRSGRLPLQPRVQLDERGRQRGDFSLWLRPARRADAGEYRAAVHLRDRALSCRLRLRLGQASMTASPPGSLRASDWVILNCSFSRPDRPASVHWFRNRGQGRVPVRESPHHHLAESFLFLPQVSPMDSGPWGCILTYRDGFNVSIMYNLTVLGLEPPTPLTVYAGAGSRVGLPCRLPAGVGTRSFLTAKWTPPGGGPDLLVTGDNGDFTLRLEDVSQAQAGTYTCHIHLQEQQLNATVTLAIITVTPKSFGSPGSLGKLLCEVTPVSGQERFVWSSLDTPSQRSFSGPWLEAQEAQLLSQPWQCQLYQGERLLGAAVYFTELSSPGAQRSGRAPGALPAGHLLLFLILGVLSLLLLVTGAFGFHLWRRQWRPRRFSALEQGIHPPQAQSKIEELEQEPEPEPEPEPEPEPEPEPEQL

T3: human LAG-3 protein with hFc tag (hLAG-3-hFc protein) (human, UniProt P18627 23-450)
T3 construct: also called immunogen 1; LAG-3 extracellular domain protein; not shown: human IgG Fc fragment (hFc) of the pCpC vector
T3 sequence: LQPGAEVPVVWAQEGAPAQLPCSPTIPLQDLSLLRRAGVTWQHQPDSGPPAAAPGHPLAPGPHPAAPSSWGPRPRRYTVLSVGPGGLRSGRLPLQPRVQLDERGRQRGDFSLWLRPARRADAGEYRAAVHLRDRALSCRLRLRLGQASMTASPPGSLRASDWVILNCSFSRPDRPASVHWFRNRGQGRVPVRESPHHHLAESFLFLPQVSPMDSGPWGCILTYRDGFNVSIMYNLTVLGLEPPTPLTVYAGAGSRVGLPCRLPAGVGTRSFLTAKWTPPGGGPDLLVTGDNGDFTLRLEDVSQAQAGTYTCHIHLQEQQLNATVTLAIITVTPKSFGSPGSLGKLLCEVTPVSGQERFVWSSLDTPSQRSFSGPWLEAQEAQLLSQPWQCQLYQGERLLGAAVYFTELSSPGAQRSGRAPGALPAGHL


What was measured:
[1] = molecular target: T1, LAG-3-hFc protein (human LAG-3 …); experiment: FACS, inhibition of LAG-3-hFc binding to MHC II on Raji cells, antibody 2.469 nM
Method: The FACS reaction plate incubating the Raji cells was centrifuged to discard the supernatant. The above mixture was added as 100 μl per well to Raji cells and incubated on ice for 1-2 hours. The plate was washed twice with blocking solution (PBS, 2% fetal bovine serum) by centrifugation, added with 100 microliters of fluorescent (Alexa 488)-labeled secondary antibodies per well, and incubated on ice for 1.0 hours. The plate was washed 2-3 times by centrifugation with blocking solution (PBS, 2% fetal bovine serum), added with 100 microliters of PBS per well to suspend cells, and detected using FACS (FACS Calibur, BD) and the results were analyzed. Wherein, the IgG control was murine IgG, and the data in the table is the inhibition rate (%).

[2] = molecular target: T2, human LAG-3 on cells (HEK293-hLAG-3 …); experiment: FACS, HEK293-hLAG-3, antibody 8.000 nM
Excerpt: The pIRES plasmid with the monkey-derived full-length gene was transfected into the HEK293 cell line to construct a HEK293 stable cell line containing monkey LAG-3 (herein referred to as HEK293-cLAG-3 stable cell line). The HEK293-hLAG-3 stable cell line and HEK293-cLAG-3 stable cell line were expanded in a T-75 cell culture flask to a 90% confluence. The medium was aspirated, and the cells were washed with HBSS (Hanks' Balanced Salt Solution) 1-2 times, then treated with a enzyme-free cell dissociation fluid (Versene solution: Life technology) and the cells were collected. The cells were washed with HBSS buffer for 1-2 times. After counted, the cells were diluted with HBSS to 1-2×10⁶ cells per ml, added with 1% goat serum blocking solution, incubated on ice for 20-30 minutes, and then washed with HBSS for 2 times by centrifugation. The collected cells were suspended in the FACS buffer (HBSS+1% BSA) to 2×10⁶ cells/ml, added as 100 microliters per well to a 96-well FACS reaction plate, added with 100 microliters per well of the antibody sample to be tested, incubated on ice for 1-2 hours. The plate was washed twice with the FACS buffer by centrifugation, added with 100 microliters of fluorescent (Alexa 488)-labeled secondary antibodies per well, and incubated on ice for 0.5-1.0 hours. The plate was washed 2-3 times with FACS buffer by centrifugation, added with 100 μl fixative solution (4% Paraformaldehyde) per well to suspend the cells. 5-10 minutes later, it was washed 1-2 times with FACS buffer by centrifugation. The cells were suspended with 100 microliters of FACS buffer, FACS (FACSCalibur, BD) was used for detection and the results were analyzed.

[3] = molecular target: T3, human LAG-3 protein with hFc tag …; experiment: ELISA, hLAG-3-hFc coated; 0.0001 nM
Method: (§1) The plate was sealed with plastic film and incubated overnight at 4° C. The plate was washed 2 times with the plate washing solution (PBS+0.01% Tween20) on the next day, and added with the blocking solution (PBS+0.01% Tween20+1% BSA) and blocked at room temperature for 1-2 hours. The blocking solution was poured out, and the plate was added with 50-100 μl of the antibody sample to be tested to each well, incubated at 37° C. for 1-2 hours, and washed 2-3 times with a plate washing solution (PBS+0.01% Tween20). HRP (horseradish peroxidase) labeled secondary antibody was added, and the plate was incubated at 37° C. for 1-2 hours, and washed 2-3 times with a plate washing solution (PBS+0.01% Tween20). 100 μl of TMB substrate was added to each well. After incubated at room temperature for 15-30 minutes, the plate was added with 100 μl of stop solution (1.0N HCl) to each well.

[4] = molecular target: T3, human LAG-3 protein with hFc tag …; experiment: ELISA, hLAG-3-hFc coated; 0.0667 nM
Method: as §1

Binder	Inhibition rate (%) [1] [%]	Mean fluorescence intensity [2]	OD450 [3] [OD450]	OD450 [4] [OD450]
105F1E10 mouse-human chimeric antibody (antibody, V domains shown, also called mAb009-105F1E10) VH: EVQLQQSGPELVKPGASVKMSCRASGYTFTDFKMHWMKQSHGKSLEWIGYIAPNNGGTAYNQKFRGKATLTVNESSNTAYMELRSLTSEDSAVYYCVDWDDVDYWGQGTTLTVSS VL: DIKMTQSPSSMYASLGERVTITCKASQDINSYLSWFQQKSGKSPKTLIYRANRLVDGVPSRFSGSGSGQDYSLTISSLEYEDMGIYYCLQYVEFPLTFGAGTKLELK	8.2	99.4	–	–
105F1E10 (LAG-3 mouse-human chimeric antibody) (antibody, V domains shown) VH: EVQLQQSGPELVKPGASVKMSCRASGYTFTDFKMHWMKQSHGKSLEWIGYIAPNNGGTAYNQKFRGKATLTVNESSNTAYMELRSLTSEDSAVYYCVDWDDVDYWGQGTTLTVSS VL: DIKMTQSPSSMYASLGERVTITCKASQDINSYLSWFQQKSGKSPKTLIYRANRLVDGVPSRFSGSGSGQDYSLTISSLEYEDMGIYYCLQYVEFPLTFGAGTKLELK	–	–	0.13	1.29
405B8H3 mouse-human chimeric antibody (antibody, V domains shown, also called mAb103-405B8H3) VH: QVQLQQSGAELVRPGASVTLSCKASGYTFTDYEMHWVKQTPVHGLEWIGATDPETGNSAYNQKFKGKAIMTADKSSSTAYMELRSLTSEDSAVYYCISTGWNDWGQGTSLTVSS VL: DIKMTQSPSSMYASLGERVTITCKASQDINSYLSWFQQKPGKSPKTLIYRADRLLDGVPSRFSGSGSGQDYSLTISSLEYGDMGIYYCLQYDEFPYTFGGGTKLEIK	55.8	137	–	–
405B8H3 (LAG-3 mouse-human chimeric antibody) (antibody, V domains shown, also called mouse-human chimeric antibody 405B8H3) VH: QVQLQQSGAELVRPGASVTLSCKASGYTFTDYEMHWVKQTPVHGLEWIGATDPETGNSAYNQKFKGKAIMTADKSSSTAYMELRSLTSEDSAVYYCISTGWNDWGQGTSLTVSS VL: DIKMTQSPSSMYASLGERVTITCKASQDINSYLSWFQQKPGKSPKTLIYRADRLLDGVPSRFSGSGSGQDYSLTISSLEYGDMGIYYCLQYDEFPYTFGGGTKLEIK	–	–	0.11	2.25
409D4E10 (LAG-3 mouse-human chimeric antibody) (antibody, V domains shown) VH: QVQLQQSGAELVRPGASVTLSCKASGNTFTDYEMHWVKQTPVHGLEWIGATDPETDNTAYNQKFKGKAILTTDKSSSTAYMELRSLTSEDSAVYYCITSGWNDWGQGTSLTVSS VL: DIKMTQSPSSMYASLGERVTITCKASQDINSYLSWFQQKPGKSPKTLIYRANRLLDGVPSRFSGSGSGQDYSLTISSLEYEDMGIYYCLQYNEFPYTFGGGTKLEIK	–	–	0.13	3.1
409D4E10 mouse-human chimeric antibody (antibody, V domains shown, also called mAb112-409D4E10) VH: QVQLQQSGAELVRPGASVTLSCKASGNTFTDYEMHWVKQTPVHGLEWIGATDPETDNTAYNQKFKGKAILTTDKSSSTAYMELRSLTSEDSAVYYCITSGWNDWGQGTSLTVSS VL: DIKMTQSPSSMYASLGERVTITCKASQDINSYLSWFQQKPGKSPKTLIYRANRLLDGVPSRFSGSGSGQDYSLTISSLEYEDMGIYYCLQYNEFPYTFGGGTKLEIK	56.7	129	–	–
409B11E12 mouse-human chimeric antibody (antibody, V domains shown, also called mAb104-409B11E12) VH: QVQLQQSGAELVRPGASVTLSCKASGYTFTDYEMHWVKQTTVHGLEWIGATDPETSYSAYNQKFKGKAILTADKSSSTAYMELRSLTSEDSAVYYCIATGWNDWGQGTSLTVSS VL: DLKMTQSPSSMYASLGERVTITCKASQDINSYLSWFQQKPGKSPKTLIYRANRLLDGVPSRFSGSGSGQDYSLTISSLEYEDMGIYYCLQYDEFPYTFGGGTKLEIK	59.2	136	–	–
409B11E12 (LAG-3 mouse-human chimeric antibody) (antibody, V domains shown) VH: QVQLQQSGAELVRPGASVTLSCKASGYTFTDYEMHWVKQTTVHGLEWIGATDPETSYSAYNQKFKGKAILTADKSSSTAYMELRSLTSEDSAVYYCIATGWNDWGQGTSLTVSS VL: DLKMTQSPSSMYASLGERVTITCKASQDINSYLSWFQQKPGKSPKTLIYRANRLLDGVPSRFSGSGSGQDYSLTISSLEYEDMGIYYCLQYDEFPYTFGGGTKLEIK	–	–	0.12	2.16
556F6B8 mouse-human chimeric antibody (antibody, V domains shown, also called mAb123-556F6B8; 556F8B8) VH: RVQLKQSGPGLVQPSQSLSITCTVSGFSLIKYGVHWVRQSPGEGLEWLGVIWRGGITDYNAAFMSRLSITKDNSKSQVFFKMNSLQADDTAIYYCAKWDGPLAMDYWGQGTSVTVSS VL: DIVMTQSHKFLSTSVGDRVSITCKASQDVGTTVAWYQQKPGQSPKLLIYWASTRHTGVPDRFTGSGSGTDFTLTISNVQSEDLADYFCQQYSSYPYTFGGGTKLEIK	41.5	93.5	–	–
556F6B8 (LAG-3 mouse-human chimeric antibody) (antibody, V domains shown, also called 556F8B8) VH: RVQLKQSGPGLVQPSQSLSITCTVSGFSLIKYGVHWVRQSPGEGLEWLGVIWRGGITDYNAAFMSRLSITKDNSKSQVFFKMNSLQADDTAIYYCAKWDGPLAMDYWGQGTSVTVSS VL: DIVMTQSHKFLSTSVGDRVSITCKASQDVGTTVAWYQQKPGQSPKLLIYWASTRHTGVPDRFTGSGSGTDFTLTISNVQSEDLADYFCQQYSSYPYTFGGGTKLEIK	–	–	0.13	1.94
